Experimental data: patent US20230212549A1, “COMPOUNDS COMPRISING A […] LIGAND AND USE THEREOF” (priority 2021, published 2023)

What was measured:
[1] = target: human fibroblast activation protein (FAP) on WI-38 fibroblasts (human) (UniProt Q12884); experiment: competitive FACS, WI-38 cells, Cy5-labeled peptide as competitor
delta (DOP) (h) (human) = delta (DOP) (h) (human) (UniProt P41143); experiment: reference compound of the radioligand binding assay (Ki Ref)
mu (MOP) (h) (human) = mu (MOP) (h) (human) (UniProt P35372); experiment: as above
mu (MOP) (h) (human), sequence (P35372 whole entry): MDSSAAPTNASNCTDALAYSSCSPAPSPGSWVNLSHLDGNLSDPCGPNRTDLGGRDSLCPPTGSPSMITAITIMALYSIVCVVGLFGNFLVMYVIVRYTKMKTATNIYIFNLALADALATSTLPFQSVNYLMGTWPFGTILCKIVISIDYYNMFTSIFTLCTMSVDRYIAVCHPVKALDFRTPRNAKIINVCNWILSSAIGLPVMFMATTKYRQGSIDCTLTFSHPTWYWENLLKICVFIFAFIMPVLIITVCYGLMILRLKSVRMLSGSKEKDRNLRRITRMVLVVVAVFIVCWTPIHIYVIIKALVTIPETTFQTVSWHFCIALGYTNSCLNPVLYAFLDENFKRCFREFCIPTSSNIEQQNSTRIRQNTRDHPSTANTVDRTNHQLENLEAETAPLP

[2] = target: fibroblast activation protein (FAP) on FAP-expressing human WI-38 fibroblasts (human) (UniProt Q12884); experiment: competitive FACS, WI-38 cells, vs Cy5 tracer m3; D = pIC50 <=6.0
[3] = target: human fibroblast activating protein (FAP) on WI-38 fibroblasts (human) (UniProt Q12884); experiment: competitive FACS on WI-38 cells vs 3 nM Cy5-labeled peptide; pIC50 category D = ≤6.0

delta (DOP) (h) (human), sequence (P41143 whole entry, stated change not applied): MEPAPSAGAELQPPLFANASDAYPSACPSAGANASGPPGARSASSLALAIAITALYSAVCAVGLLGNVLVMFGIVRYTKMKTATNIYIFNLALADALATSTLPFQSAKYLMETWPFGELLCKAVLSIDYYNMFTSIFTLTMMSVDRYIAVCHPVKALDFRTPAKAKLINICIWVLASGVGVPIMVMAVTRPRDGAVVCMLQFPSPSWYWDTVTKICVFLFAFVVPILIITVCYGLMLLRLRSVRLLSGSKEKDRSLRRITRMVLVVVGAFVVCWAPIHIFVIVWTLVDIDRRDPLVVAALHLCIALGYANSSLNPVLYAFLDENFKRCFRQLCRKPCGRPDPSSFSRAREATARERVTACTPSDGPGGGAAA

pIC50 Category (FACS) [1] [pIC50] | Substance | further results
< 6 | N4Ac-Ttds-Glu(AGLU′)-Nle-[Cys-(3MeBn)-Pro-Pro-Thr-Gln-Phe-Cys]-OH (peptide) | 
< 6 | H-Gab-[Cys(3MeBn)-Pro-Pro-Thr-Gln-Phe-Cys]-NH2 (peptide) | 
 | DPDPE (peptide) | Ki (delta (DOP) (h) (human)): 1.2 nM
< 6 | H-Ahx-[Cys(3MeBn)-Pro-Pro-Thr-Gln-Phe-Cys]-NH2 (peptide) | 
< 6 | Ac-Aad-[Cys(3MeBn)-Pro-Pro-Thr-Gln-Phe-Cys]-NH2 (peptide) | 
 | DAMGO (peptide) | Ki (mu (MOP) (h) (human)): 0.37 nM
< 6 | N4Ac-gGlu-Nle-[Cys-(3MeBn)-Pro-Pro-Thr-Gln-Phe-Cys]-OH (peptide) | 
< 6 | H-Ava-[Cys(3MeBn)-Pro-Pro-Thr-Gln-Phe-Cys]-NH2 (peptide) | 
 | DOTA-Ttds-Hci-[Cys(3MeBn)-Pro-Pro-Thr-Gln-Phe-Cys]-Bal-OH (peptide) | pIC50 Category (FACS) [2]: < 6 pIC50
 | N4Ac-PPAc-Bal--Nle-[C(3MeBn)-PPTEFC]-OH (peptide) | pIC50 [3]: < 6 pic50
